Source: patent publication US20020115184

How the values were obtained:
B. subtilis YqxM protein = target: T1, B. subtilis YqxM protein
T1 chain: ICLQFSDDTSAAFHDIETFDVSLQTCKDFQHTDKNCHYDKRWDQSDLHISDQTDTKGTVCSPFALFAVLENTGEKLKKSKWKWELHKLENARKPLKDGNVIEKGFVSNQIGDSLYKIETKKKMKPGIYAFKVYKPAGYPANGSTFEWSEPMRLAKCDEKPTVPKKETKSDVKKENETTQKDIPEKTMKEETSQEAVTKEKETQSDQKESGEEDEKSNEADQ

[1] = target: T2, immature TasA protein (pro-TasA), 34 kDa
T2 chain: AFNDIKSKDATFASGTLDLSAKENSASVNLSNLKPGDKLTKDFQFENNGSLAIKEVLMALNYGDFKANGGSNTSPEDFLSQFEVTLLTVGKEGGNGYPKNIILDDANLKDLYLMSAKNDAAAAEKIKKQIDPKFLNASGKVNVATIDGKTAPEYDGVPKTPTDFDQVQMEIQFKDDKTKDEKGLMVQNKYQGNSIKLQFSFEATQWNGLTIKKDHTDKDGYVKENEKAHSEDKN

B1: B. subtilis SipW protein (signal peptidase) (protein)
chain: MKLISNILYVIIFTLIIVLTLVVISTRSSGGEPAVFGYTLKSVLSGSMEPEFNTGSLILVKEITDVKELQKGDVITFMQDANTAVTHRIVDITKQGDHLLFKTKGDNNAAADSAPVSDENVRAQYTGFQLPYAGYMLHFASQPIGTAVLLIVPGVMLLVYAFVTISSAIREIERKTKALETDTKDSTMST
B. subtilis YqxM protein
  Western blot of YqxM in concentrated E. coli culture supernatants: when both YqxM and SipW were produced, YqxM was abundant in the culture supernatant and migrated as a smaller 31 kD species
  YqxM associated with the spore, with sipW deleted or under pSpac control: deletion of sipW resulted in no measurable amount of YqxM associated with the spore
[1]
  Western blot for mature TasA in a strain where the neo promoter drives sipW and TasA and YqxM is disrupted: A band corresponding to mature TasA was detected in extracts of spores and in both the culture supernatants and lysates of sporangia and vegetative cells. No protein of larger molecular weight that could correspond to immature TasA was detected.
  Western blot of TasA size in sipW deletion strains (34 kDa immature against 31 kDa mature): a 34 kDa band was detected in both sporangial lysates and vegetative cells
